The text below walks through data of article PMC10215022 (mAbs, 2023).

This assay addresses SARS-CoV-2 Wuhan (WT) spike protein RBD, His-tagged (SARS-CoV-2 Wuhan (WT), UniProt P0DTC2). Description: SPR.

In general, Kd refers to the concentration at which binding is half-saturated. In general, koff refers to the first-order rate constant of dissociation. The term kon denotes a measure of how fast the partners come together. Low values mean slower complex formation, high ones faster complex formation.

B1: casirivimab (REGN10933) (antibody, V domains shown)
VH: QVQLVESGGGLVKPGGSLRLSCAASGFTFSDYYMSWIRQAPGKGLEWVSYITYSGSTIYYADSVKGRFTISRDNAKSSLYLQMNSLRAEDTAVYYCARDRGTTMVPFDYWGQGTLVTVSS
VL: DIQMTQSPSSLSASVGDRVTITCQASQDITNYLNWYQQKPGKAPKLLIYAASNLETGVPSRFSGSGSGTDFTFTISGLQPEDIATYYCQQYDNLPLTFGGGTKVEIK
For the molecule B1, binding was characterised by a dissociation constant (Kd) of 0.071 nM, the dissociation rate constant (koff) was found to be 0.00021 s⁻¹ and the on-rate (kon) turned out to be 3e+06 M⁻¹ s⁻¹.

B2: imdevimab (REGN10987) (antibody, V domains shown)
VH: QVQLVESGGGVVQPGRSLRLSCAASGFTFSNYAMYWVRQAPGKGLEWVAVISYDGSNKYYADSVKGRFTISRDNSKNTLYLQMNSLRTEDTAVYYCASGSDYGDYLLVYWGQGTLVTVSS
VL: QSALTQPASVSGSPGQSITISCTGTSSDVGGYNYVSWYQQHPGKAPKLMIYDVSKRPSGVSNRFSGSKSGNTASLTISGLQSEDEADYYCNSLTSISTWVFGGGTKLTVL
Turning to B2, the affinity, expressed as Kd, was 0.087 nM; the koff came out at 0.00029 s⁻¹; the association rate constant (kon) amounted to 3.4e+06 M⁻¹ s⁻¹.
